This data set can be described thus: soluble on expression in E. coli; label from the status in PepcDB or PDB records.
With “MGSDKIHHHHHHVNFRDLGGYPVGDGRRTRWGRLFRSDSLGALTEEDLALVAALDLYRVVDFRLPHERELHPNRLPVGAGPKVTEIGFWPDGVPEMLKALRELRIDAAGIERAVTGHYRRYAVHHRAEYRRMLEAVEEAAGRPTLIHCVSGKDRTGFGAAVILMALGVPRTVIVEDYLLTNDCRRDIGHLMPSGTTESVAEAFTAARPAYIEAAFESIDTAFGGIDDYLAHGLGFGEQRLQRLRECLTEPATGSASLLSPRRAGNP”, the “soluble on expression in E. coli” value is recorded as “not soluble”.
With “MGSDKIHHHHHHVTSGQDKPWPPVSMGMARLTTMAFHGENMVPPAIELLKRSEADPTDSAALLDLSAIHFLLGHEEAGLAYQERALAQNQVYRDHSETASEDGVRLLAFAAPGNLMSNVPIQFLIENSDIRLDVLYVVPGLDLPERVPAHDMAMVIAGESEPNREVLERIAAFADLWPCPPVLNDPRKVLQLSRDGVSSLLSGVPGIRIPATTRVDPESLARLGRGEIALTDLLPDGSFPVIARPLDSHAGKGLAKLDDPSTIALYLAAQPAEGYYLSSFVDYRGAGGMFRKYRIALIDGKPFVCHMAVSAHWMIHYLNADMRESAEKRAEEAQAFATFDEDFAARHKDAFATMAERIGLDYFAMDCAETPDGDLLVFEADTAMIVHAMDPPDIFPYKAPQMRRIFKAFQDMLRRIKQDKQD”, the “soluble on expression in E. coli” value is listed as “not soluble”.
In the case of “MGSDKIHHHHHHVVNQAQKMNFLTHLHLADISKTHLAANVAGNYIQAPIAQAPVEFRQALWLNQEINTLCASHELTIELMEAFPAPLRSIAAELMAVSFDYYLAYYWEEYHHQPLNEFSHKAYDALENFAAQGIDQYHPEALIKLLPTIRSQDWLGSYATENGLQQALAQVAKPHPQAALFKDAHKVVNKMQIEIETTFRTFYPQLMAYSRIWSRKTPAEYLP”, the “soluble on expression in E. coli” value was “not soluble”.
For “MGSDKIHHHHHHYAVQPKDDKKENEALQTSTEEHLPLLTINGTNASSSFIVNSEALLGKEITITAPNGFTVTPTVIAANSGKQKVKVTLNSTKRLTEGKIILRSGDVRSYLKVKGYGTALPVKDIAASPAYKKGNDKEFTKAFTPNSKGYTIEFKIKTDDSEKSFYPYFVNEKGYGFKAYITSNEIGLFNAYKKEITNPATNGKAGGKGKFYNNDGQAHIYRFAITPDNRAFIYRDGIPVDSVRIIDYAPQPNFAEKVGKPVENLLKNPNFEGEFDINPETKLVSRVEGWDVVISDRWNSEQQILPEEIDNNQDLDNHVFEIRPYKWAAGWSDGILMQVVDVVPNENYTLSALLKGGIAKKEGKLTGKMIIEEVQDPEKKVITEIASDNWETYSMDYTTSAECNQIRVSFTVGRGGWGNDIGAVRVDNAKLTGTSRTYSPKFGFIDNTADVEYFTIDESGAYAPAQPEITINIED”, the “soluble on expression in E. coli” value is given as “not soluble”.
Take “MGSDKIHHHHHHYGLGRSWAPGLSQLDGVPRLGGTLDAPLVLNDASELSATPIHIHTRPAAHGDALIEAFRAELTAAQAEDRPVCVSAARHSMGGQSLPRGGHAITVDNAWIEPDTANQTYRVNGGARWRDVIAALDPIGFSPAVMQSNHDFGVAATFSVNAHGWPVPYGPMGATVREIRMVLPGGDLVTASRTENTDLFNLAVGGYGLAGLIVDMEVDMVPNQRLAPSFTPMPAADFPAAFRAAVDDPTMPMGYGRLNVTRESLFEEALLVTYSPTPDQSDIPPAIESGWLSYAASYLYRGQVGREGMKDWRWWVEADLGPRLAGESTRNSLMNEPVITLDDRDPTRVDILHEYFVPFDAFDGFLEACRDVIPDAFVEFLNVTLRFVDSDTDSLLPHSPTPRIAAVMSFTQEKTTRAEADHARMTRALIDRIVAIGGTYYLPYRPHATLDQFTAAYPNAPEFAAAKRALDPTLTLRNNLWDSYLADL”: the “soluble on expression in E. coli” value is listed as “not soluble”.
On to “MGSHHHHHHDITSLYKKAGSAAAVLEENLYFQGSFTMLHEIPKSEILKELKRIGAKRVLIQSPEGLRREAEELAGFLEENNIEVFLHGEINYGACDPADREAKLVGCDALIHLGHSYMKLPLEVPTIFVPAFARVSVVEALKENIGEIKKLGRKIIVTTTAQHIHQLKEAKEFLESEGFEVSIGRGDSRISWPGQVLGCNYSVAKVRGEGILFIGSGIFHPLGLAVATRKKVLAIDPYTKAFSWIDPERFIRKRWAQIAKAMDAKKFGVIVSIKKGQLRLAEAKRIVKLLKKHGREARLIVMNDVNYHKLEGFPFEAYVVVACPRVPLDDYGAWRKPVLTPKEVEILLGLREEYEFDEILGGPRESDEPFGISIHSTR”, for which the “soluble on expression in E. coli” value was “soluble”.
On to “MGSHHHHHHSQDPMMSRLKTAVYDYLNDVDITECTEMDLLCQLSNCCDFINETYAKNYDTLYDIMERDILSYNIVNIKNTLTFALRDASPSVKLATLTLLASVIKKLNKIQHTDAAMFSEVIDGIVAEEQQVIGFIQKKCKYNTT”, for which the “soluble on expression in E. coli” value is given as “soluble”.
With “MGSIEEVLLEERLIGYLDPGAEKVLARINRPSKIVSTSSCTGRITLIEGEAHWLRNGARVAYKTHHPISRSEVERVLRRGFTNLWLKVTGPILHLRVEGWQCAKSLLEAARRNGFKHSGVISIAEDSRLVIEIMSSQSMSVPLVMEGARIVGDDALDMLIEKANTILVESRIGLDTFSREVEELVECFAAALEHHHHHH”, the “soluble on expression in E. coli” value is “soluble”.
In the case of “MGSSHHHHHHGGTGENLYFQGGSGPSSVAYVLGTESCGKTDLVHQLEYLTLGLVRTVPTACTPTTGQEVTKLNICSPAGKGKVTVEVRELGGSLVNTWESFIESRKARDGGSGDTSFLLIYVVDGVAPHQLPLASTMFRYLTQGRHAPCAGWPTLITVQKCASVNAITAEEVRSFFLDEVEAPANVDVVEVDSWNGIGTGDVLKGIEAVFGGLQ”, the “soluble on expression in E. coli” value is “not soluble”.
Turning to “MGSSHHHHHHGKTIFVIVPTNEEQVAFLEALAKQDELNFDWQNPPTEPGQPVVILIPSDMVEWFLEMLKAKGIPFTVYVEEGGSENLYFQGGGGGGDRMRQGWLRSSAALLERVHGHLKDQDRIFTNLYNDFGTGIDAAERRGDWYRTKDILLKGHDWVINEIKASGLRGRGGAGFPSGLKWSFMPKKKQDDRPSYIVVNCDESEPGTCKDREIMRHEPHKVVEGALLAGFAMRARYGYIYIRGEFYNEWRSVEKAIHEAYEKGYLGKNACGSGWDFDLYTYRGAGAYICGEETAMIASIEGGQGKPRLKPPFPANVGLYGCPTTVTNCETVAVSPTIIRRGPQWFAQFGRKGNAGTKLFCISGHVNRPCTVEEEMSMPLRELLERHAGGVRGGWDNLLCVIPGGSSCPLIPKHICDDILMDYDALKEAQTGLGTAAVIVMDKSTDVINAIERLSQFYMHESCGQCTPCREGSPWLDKMMKRFVNGNAKKEEIYTLWDVSKQMEGRSICALGTAAAWPVQGLIRHFKPLMEERIERFWEANPHWGQPGSPWRRWKTHRYYTMQKGDRLNWDGKIVRNWN”, the “soluble on expression in E. coli” value is reported as “not soluble”.
Then “MGSSHHHHHHSSENLYFQGHMLANNNKRSKLSTVPSSRPIRVGFVGLTSGKSWVAKTHFLAIQQLSSQFQIVALYNPTLKSSLQTIEQLQLKHATGFDSLESFAQYKDIDMIVVSVKVPEHYEVVKNILEHSSQNLNLRYLYVEWALAASVQQAEELYSISQQRANLQTIICLQGRKSPYIVRAKELISEGCIGDINSIEISGNGGWYGYERPMRSPEYLYDIESGVNLISNSFGHTIDVLQYITGSYFQKINAMISNNIPTQFLLDENGKRTKETISKTCPDHLLFQGILENGKVPVSCSFKGGTPVKKLTKNLVIDIHGTKGDLKIEGDAGFVEISNLVLYFYGIKNGNGSSNGTDNNGAAAIKDKEKVTKSPSPSTGTSEEEQTMEVFHLRNYNSVVGNILRIYESIADYHFLGKPESKSSRGPDDLFASTKFDKQGFRFEGFPTFKDAIILHRLIDAVFRSDKEEKTLDVSKIMI”, with “soluble”.
Turning to “MGSSHHHHHHSSGLVPRGSDLQEDEDGVYFSSYGHYGIHEEMLKDKIRTESYRDFIYQNPHIFKDKVVLDVGCGTGILSMFAAKAGAKKVLGVDQSEILYQAMDIIRLNKLEDTITLIKGKIEEVHLPVEKVDVIISEWMGYFLLFESMLDSVLYAKNKYLAKGGSVYPDICTISLVAVSDVNKHADRIAFWDDVYGFKMSCMKKAVIPEAVVEVLDPKTLISEPCGIKHIDCHTTSISDLEFSSDFTLKITRTSMCTAIAGYFDIYFEKNCHNRVVFSTGPQSTKTHWKQTVFLLEKPFSVKAGEALKGKVTVHKNKKDPRSLTVTLTLNNSTQTYGLQ”, the “soluble on expression in E. coli” value was “soluble”.
Take “MGSSHHHHHHSSGLVPRGSHMALSRGLPRELAEAVAGGRVLVVGAGGIGCELLKNLVLTGFSHIDLIDLDTIDVSNLNRQFLFQKKHVGRSKAQVAKESVLQFYPKANIVAYHDSIMNPDYNVEFFRQFILVMNALDNRAARNHVNRMCLAADVPLIESGTAGYLGQVTTIKKGVTECYECHPKPTQRTFPGCTIRNTPSEPIHCIVWAKYLFNQLFGEEDADQEVSPDRADPEAAWEPTEAEARARACNEDGDIKRISTKEWAKSTGYDPVKLFTKLFKDDIRYLLTMDKLWRKRKPPVPLDWAEVQSQGEETNASDQQNEPQLGLKDQQVLDVKSYARLFSKSIETLRVHLAEKGDGAELIWDKDDPSAMDFVTSAANLRMHIFSMNMKSRFDIKSMAGNIIPAIATTNAVIAGLIVLEGLKILSGKIDQCRTIFLNKQPNPRKKLLVPCALDPPNPNCYVCASKPEVTVRLNVHKVTVLTLQDKIVKEKFAMVAPDVQIEDGKGTILISSEEGETEANNHKKLSEFGIRNGSRLQADDFLQDYTLLINILHSEDLGKDVEFEVVGDAPEKVGPKQAEDAAKSITNGSDDGAQPSTSTAQEQDDVLIVDSDEEDSSNNADVSEEERSRKRKLDEKENLSAKRSRIEQKEELDDVIALD”: the “soluble on expression in E. coli” value is recorded as “soluble”.
Take “MGSSHHHHHHSSGLVPRGSHMASMAKMRAVDAAMYVLEKEGITTAFGVPGAAINPFYSAMRKHGGIRHILARHVEGASHMAEGYTRATAGNIGVCLGTSGPAGTDMITALYSASADSIPILCITGQAPRARLHKEDFQAVDIEAIAKPVSKMAVTVREAALVPRVLQQAFHLMRSGRPGPVLVDLPFDVQVAEIEFDPDMYEPLPVYKPAASRMQIEKAVEMLIQAERPVIVAGGGVINADAAALLQQFAELTSVPVIPTLMGWGCIPDDHELMAGMVGLQTAHRYGNATLLASDMVFGIGNRFANRHTGSVEKYTEGRKIVHIDIEPTQIGRVLCPDLGIVSDAKAALTLLVEVAQEMQKAGRLPCRKEWVADCQQRKRTLLRKTHFDNVPVKPQRVYEEMNKAFGRDVCYVTTIGLSQIAAAQMLHVFKDRHWINCGQAGPLGWTIPAALGVCAADPKRNVVAISGDFDFQFLIEELAVGAQFNIPYIHVLVNNAYLGLIRQSQRAFDMDYCVQLAFENINSSEVNGYGVDHVKVAEGLGCKAIRVFKPEDIAPAFEQAKALMAQYRVPVVVEVILERVTNISMGSELDNVMEFEDIADNAADAPTETCFMHYE”: the “soluble on expression in E. coli” value is given as “soluble”.
Turning to “MGSSHHHHHHSSGLVPRGSHMDTTVPTFSLAELQQGLHQDEFRRCLRDKGLFYLTDCGLTDTELKSAKDLVIDFFEHGSEAEKRAVTSPVPTMRRGFTGLESESTAQITNTGSYSDYSMCYSMGTADNLFPSGDFERIWTQYFDRQYTASRAVAREVLRATGTEPDGGVEAFLDCEPLLRFRYFPQVPEHRSAEEQPLRMAPHYDLSMVTLIQQTPCANGFVSLQAEVGGAFTDLPYRPDAVLVFCGAIATLVTGGQVKAPRHHVAAPRRDQIAGSSRTSSVFFLRPNADFTFSVPLARECGFDVSLDGETATFQDWIGGNYVNIRRTSKA”, the “soluble on expression in E. coli” value is “soluble”.
Then “MGSSHHHHHHSSGLVPRGSHMEEDGGIIRRIQTRGEGYAKPNEGAIVEVALEGYYKDKLFDQRELRFEIGEGENLDLPYGLERAIQRMEKGEHSIVYLKPSYAFGSVGKEKFQIPPNAELKYELHLKSFEKAKESWEMNSEEKLEQSTIVKERGTVYFKEGKYKQALLQYKKIVSWLEYESSFSNEEAQKAQALRLASHLNLAMCHLKLQAFSAAIESCNKALELDSNNEKGLSRRGEAHLAVNDFELARADFQKVLQLYPNNKAAKTQLAVCQQRIRRQLAREKKLYANMFERLAEEENKAKAEASSGDHPTDTEMKEEQKSNTAGSQSQVETEA”, with “soluble”.
